In paper PMC11199706:

How the values were obtained:
[1] = target: NOPLight (human (NOPR part)); test: fluorescence response of the sensor on cells (confocal imaging); sensor on transfected HEK293T cells in HBSS, ligand pipetted in at one concentration (1 µM where stated), ΔF/F0 of membrane pixels
[2] = target: NOPLight (human (NOPR part)); test: fluorescence response of the sensor on cells (wash-off kinetics); NOPLight on HEK293T cells under constant perfusion with 37 °C HBSS, about 50 nL of 100 µM N/OFQ puffed onto the cells, mono-exponential decay fit
[3] = target: NOPLight (human (NOPR part)); test: fluorescence response of the sensor on cells (wash-off kinetics); NOPLight on HEK293T cells on coverslips, 37 °C HBSS, 500 nM N/OFQ bath-applied, perfusion turned on after 30 s, mono-exponential decay fit
[4] = target: NOPLight (human (NOPR part)); test: fluorescence response of the sensor in acute brain slices (off kinetics); NOPLight expressed in mouse brain (AAV), slices at 31 °C in aCSF, 50 nL of N/OFQ at 10, 50 or 500 nM puffed onto the slice
[5] = target: NOPLight (human (NOPR part)); test: fluorescence response of the sensor on cells (line-scan confocal imaging, kinetics); NOPLight on HEK293T cells, 37 °C, N/OFQ applied in bolus with Red-Dextran dye, line scan at 800 Hz, mono-exponential association fit
[6] = target: NOPLight (human (NOPR part)); test: other fluorescence titration; apparent; NOPLight on AAV-transduced cultured rat cortical neurons in HBSS, N/OFQ applied manually during confocal imaging (20x), normalised ΔF/F0 fitted with a three-parameter Hill equation
[7] = target: NOPLight (human (NOPR part)); test: other fluorescence titration; apparent; NOPLight on transfected HEK293T cells in HBSS, N/OFQ applied manually during confocal imaging (20x), normalised ΔF/F0 fitted with a three-parameter Hill equation
[8] = target: NOPLight (human (NOPR part)); test: fluorescence response of the sensor in acute brain slices; NOPLight expressed in the mouse arcuate nucleus (AAV), coronal slices perfused with aCSF pH 7.2, increasing N/OFQ (5 nM to 10 µM) bath-applied for 10 min each
[9] = target: NOPLight (human (NOPR part)); test: fluorescence response of the sensor on cells (confocal imaging); sensor on AAV-transduced cultured rat cortical neurons in HBSS, 1 µM N/OFQ, ΔF/F0 of membrane pixels

With FGGFTGARKSARKLANQ [nociceptin/orphanin-FQ peptide] as the binder, how does the ΔF/F0 upon N/OFQ (1 µM) [1] read?
The ΔF/F0 upon N/OFQ (1 µM) was 388%.

And the τoff (localized puff application) [2]?
The τoff (localized puff application) was 29.9 s.

And the τoff (bath application) [3]?
Its τoff (bath application) is 57.1 s.

What about the τoff at 10 nM N/OFQ [4] of the same binder?
Its τoff at 10 nM N/OFQ is 30.9 s.

And the τoff at 50 nM N/OFQ [4]?
Its τoff at 50 nM N/OFQ is 41.1 s.

And the τoff at 500 nM N/OFQ [4]?
The τoff at 500 nM N/OFQ was 53.1 s.

What about the τON (time constant of signal activation) [5] of the same binder?
The τON (time constant of signal activation) was 595 ms.

What about the EC50 [6] of the same binder?
Its EC50 is 42.8 nM.

And the EC50 [7]?
The EC50 was 28.6 nM.

And the ΔF/F0 at 10 nM N/OFQ [8]?
Its ΔF/F0 at 10 nM N/OFQ is 1.9%.

And the ΔF/F0 at 10 µM N/OFQ [8]?
The ΔF/F0 at 10 µM N/OFQ was 73%.

And the ΔF/F0 upon N/OFQ (1 µM) [9]?
The ΔF/F0 upon N/OFQ (1 µM) was 378%.
